This is an account of results in the RNAGym collection of RNA variant scans (doi:10.7554/elife.80360).

B1: Twister Ribozyme (parent)
chain: AACACUGCCAAUGCCGGUCCCAAGCCCGGAUAAAAGUGGAGGGGGCGG

Variants of B1 are the subject of the data set. Description: self-cleavage, relative activity (ratio to wild type); higher = more cleavage; co-transcriptional.
In the case of AACACUGCUAGUGCCGGUCCCAAGCCCGGAUAAAAGUGGAGGGGGCGG, the self-cleavage stood at 0.597. Under AACACUGCCAAGGCCGGUCUCAAGCCCGGAUAAAAGUGGAGGGGGCGG stands 0.725; under UACACUGCCAAUGCCGGUCCCAAACCCGGAUAAAAGUGGAGGGGGCGG, 0.062; under AAAACUGCCAAUGCCGGUCCAAAGCCCGGAUAAAAGUGGAGGGGGCGG, 0.0913. Under AACACUGCCAAUGCCUGUCCCAAGCCCGGAUAAAAGUGGAGGGGGCGA stands 0.898; under AAAACUGCCAAUGCCGGUCCCAAGCCCGGAUAAGAGUGGAGGGGGCGG, 0.1.

On to AACGCUGCCAAUGCCGGUCCAAAGCCCGGAUAAAAGUGGAGGGGGCGG, for which the self-cleavage was 0.0832. Under AACACUGCCAAUGCCUGUCCCAAGCCCGGAUAAAAGUGGACGGGGCGG stands 0.212; under AACACUGCCAAUGCCGGUCCCAAGCCCGGAUGAAAGUGGAGUGGGCGG, 0.357; under AACACUGCCAAUGCCGGUCCCAAGCCCGGAUGAAAGUGGAGGGGGCCG, 0.473.

Regarding AACACUGCCAAUGCCGGUACCUAGCCCGGAUAAAAGUGGAGGGGGCGG, the self-cleavage was determined as 0.11.

Take AACACUGCCAAUGCCGGUCCCAAGCCCGGAUAAAAGGCGAGGGGGCGG: the self-cleavage is 0.208. Under AAAACUGCCACUGCCGGUCCCAAGCCCGGAUAAAAGUGGAGGGGGCGG stands 0.153; under AACAGUGCCAAUGCCGGUCCCAAGCCCGGAUAAAAGUGGAGGGGGCUG, 0.521. Under AACACUGCCAAUGCCGGUGCCAAGCCCGGAGAAAAGUGGAGGGGGCGG stands 0.467; under AACACUGCCAAUGCCGUUCCAAAGCCCGGAUAAAAGUGGAGGGGGCGG, 0.0909. The result for UACACUGCCAAUGCCGGUCCCAAGCCCGGAUAAAAGUGGAGGGGGCAG reads 0.0626. In the case of CACACUGCCAAUGCCGGUCCCAAACCCGGAUAAAAGUGGAGGGGGCGG, the self-cleavage was found to be 0.161. Under AACACUGCCAGUGCCGGUCCCAAGCCCGGAUAAAAGUCGAGGGGGCGG stands 0.683; under AACACUGCCAGUGCCGGUCCCAAGCCCGGAUAAAAGUAGAGGGGGCGG, 0.824. Under AACACUGCCAAUGCCGGUCCCAAGCCCUGAUAAAAGUGGAGGUGGCGG stands 0.285. Under AACACUGCCAAUGCCGGUCCCAAUCCCGGAUAACAGUGGAGGGGGCGG stands 0.101; under AACACUGCCAAUGCCGGUCGCAAGCCCGGAUAAAAGUGGAGGAGGCGG, 0.0749; under AACACAGCCAGUGCCGGUCCCAAGCCCGGAUAAAAGUGGAGGGGGCGG, 0.897.

For the variant AACACUGCCAAGGCCGGUCCCAAGCCCGGAAAAAAGUGGAGGGGGCGG, the self-cleavage stood at 0.746. Under AACACUGCCACUGGCGGUCCCAAGCCCGGAUAAAAGUGGAGGGGGCGG stands 0.164; under AACACUGCCAAUGCCGGUCCCAAGCCCGGAUAAAAGUCGAGGGGGCGA, 0.974; under AACACUGUCAAUGCCGGUCCCAAGCCCGGAUAAAAGUCGAGGGGGCGG, 0.644.

Take AACACUGCCAAUGCCGGUCCCAACCCCGAAUAAAAGUGGAGGGGGCGG: the self-cleavage amounted to 0.132. Under AACACUGCCAAUGCCGGUCUCAAGCCCGGAUAAAAGAGGAGGGGGCGG stands 0.474; under AACACUUCCAAUGCCGGUCCCAAGCCCGGAUAAAAGUGGAGGGGGCGG, 0.143; under AACACUGCCAAUGCCGGUCCCAACCCCGGAUAAAAGUGGACGGGGCGG, 0.0814. The result for AUCACUGCCAAUGCCGGUCCCAAGCCCGGAUAAAAGUGUAGGGGGCGG reads 0.188; that for AACACUGCCAAUGCCGGUCCCAAGCCCGGAUAAAUGUGGAGGGGGUGG, 0.894; that for AACACUGCCAAUGCCGGUCCCCAGCCCGGAUAAAAGUGGAGGGCGCGG, 0.905. Under AACACUGCCAAUGCCGGUCCCAAGCCCGGCUCAAAGUGGAGGGGGCGG stands 0.758; under UACUCUGCCAAUGCCGGUCCCAAGCCCGGAUAAAAGUGGAGGGGGCGG, 0.0259. On to AACACUGCCAUUGCCGGUCCCAUGCCCGGAUAAAAGUGGAGGGGGCGG, for which the self-cleavage amounted to 0.765. AACAGUGCCAAUGCCGGUCCCAAGCGCGGAUAAAAGUGGAGGGGGCGG: the self-cleavage was 0.122. The result for AACAUUGCCAAUGCCGGUCCCAAGCCCGGGUAAAAGUGGAGGGGGCGG reads 0.784; that for AAUACUGCCAAUGCCGGUCCCAAGCCCGGAUAAAAGUGGAGGGCGCGG, 0.446. Under AACACUGCCAAUCCCGGUCCCAAGCCCGGAUAAAAGCGGAGGGGGCGG stands 0.116; under AACACUGCCAAGGCCGGUCCCAAGCCCGGAUAAAAGUGGAGGGGCCGG, 0.288; under AACACUGCCUAUGCCGGUCCCUAGCCCGGAUAAAAGUGGAGGGGGCGG, 0.829.

Consider AACACUGCCAAUGCCGGUCCCAAGCCCGGGUAAUAGUGGAGGGGGCGG, for which the self-cleavage was 0.86. Under AACACUGCCACUGCCGGUCCCAAGCCCGCAUAAAAGUGGAGGGGGCGG stands 0.668. Under AACACUGCCAAUGCCGGUCCCAAGCCAGGAUAAAAGUGGAAGGGGCGG stands 0.119. Under AACACUGCCAAUGCCGGUCCCAAGCCCGGAUAAAAGUGGAGGGAUCGG stands 1.11. As to AACACUGCCAAUGCCGGUCCCAUGCCCGGAUACAAGUGGAGGGGGCGG, the self-cleavage was determined as 0.186. The result for AACACUGCCAAUGCCGAUCCCAAGCCCGGAUAAAAGUGGAGGGUGCGG reads 0.704; that for AACACUGCCAAUGCCGGUCCCAAGCCCGGAUACAAUUGGAGGGGGCGG, 0.122. The result for AACCCUGCCAAUGCAGGUCCCAAGCCCGGAUAAAAGUGGAGGGGGCGG reads 0.12. Under AACACUGCCAAUGCCGGUACCAAGCCCGGAUAAAAGUGGAGAGGGCGG stands 0.135; under AACACUGCCAAUGCCGUUCCCAAGCCCGGAUAAAAGUGGAGGGGGCAG, 0.237.
